Experimental data taken from patent US20230192860A1 (Bristol-Myers Squibb, published 2023).
Where a chain is given by its changes, count along the chain named.

B1: P1-061029 (antibody, human IgG1, kappa)
heavy: EVQLVESGGGLVQPGKSLRLSCAASGFTLDDYAMHWVRQAPGKGLEWVSGINWNSANIGYADSVKGRFTISRDNAKNSLYLQMNSLRTEDTALYYCAKVPGYSGGWIDAFDVWGQGTMVTVSSASTKGPSVFPLAPSSKSTSGGTAALGCLVKDYFPEPVTVSWNSGALTSGVHTFPAVLQSSGLYSLSSVVTVPSSSLGTQTYICNVNHKPSNTKVDKRVEPKSCDKTHTCPPCPAPEAEGAPSVFLFPPKPKDTLMISRTPEVTCVVVDVSHEDPEVKFNWYVDGVEVHNAKTKPREEQYNSTYRVVSVLTVLHQDWLNGKEYKCKVSNKALPAPIEKTISKAKGQPREPQVYTLPPSREEMTKNQVSLTCLVKGFYPSDIAVEWESNGQPENNYKTTPPVLDSDGSFFLYSKLTVDKSRWQQGNVFSCSVMHEALHNHYTQKSLSLSPG
light: not shown
notes: also called P1-061029-18; P1-061029.IgG1.3
B2: P1-068761 (antibody, human IgG1, kappa)
heavy: B1 heavy with D30E, Y32E, A56E, N57E, G104H, F110E
light: not shown
notes: also called P1-068761-20
B3: P1-070864 (P1-068761_E30D) (antibody, human IgG1, kappa, V domains shown)
VH: EVQLVESGGGLVQPGKSLRLSCAASGFTLDDEAMHWVRQAPGKGLEWVSGINWNSEEIGYADSVKGRFTISRDNAKNSLYLQMNSLRTEDTALYYCAKVPGYSHGWIDAEDVWGQGTMVTVSS
VL: not shown
notes: also called P1-070864-3
B4: P1-070868 (P1-068761_E55A) (antibody, human IgG1, kappa, V domains shown)
VH: B3 VH with D30E, E56A
VL: not shown
notes: also called P1-070868-6
B5: P1-070870 (P1-068761_E56N) (antibody, human IgG1, kappa, V domains shown)
VH: B3 VH with D30E, E57N
VL: not shown
notes: also called P1-070870-3
B6: P1-070872 (P1-068761_H100G) (antibody, human IgG1, kappa, V domains shown)
VH: B3 VH with D30E, H104G
VL: not shown
notes: also called P1-070872-4
B7: P1-070878 (P1-068761_E55A_E56N) (antibody, human IgG1, kappa, V domains shown)
VH: B3 VH with D30E, E56A, E57N
VL: not shown
notes: also called P1-070878-3
B8: P1-070890 (P1-068761_E30D_E55A) (antibody, human IgG1, kappa, V domains shown)
VH: B3 VH with E56A
VL: not shown
notes: also called P1-070890-3
B9: P1-070900 (P1-068761_E56N_H100G) (antibody, human IgG1, kappa, V domains shown)
VH: B3 VH with D30E, E57N, H104G
VL: not shown
notes: also called P1-070900-3
B10: P1-070904 (P1-068767_E30D) (antibody, human IgG1, kappa, V domains shown)
VH: B3 VH with E32Y, N52D, E57N, H104G, V112D
VL: not shown
notes: also called P1-070904-3
B11: P1-070906 (P1-068767_D52N) (antibody, human IgG1, kappa, V domains shown)
VH: B3 VH with D30E, E32Y, E57N, H104G, V112D
VL: not shown
notes: also called P1-070906-6
B12: P1-070908 (P1-068767_E55A) (antibody, human IgG1, kappa, V domains shown)
VH: B3 VH with D30E, E32Y, N52D, E56A, E57N, H104G, V112D
VL: not shown
notes: also called P1-070908-6
B13: P1-070914 (P1-068767_E30D_D52N) (antibody, human IgG1, kappa, V domains shown)
VH: B3 VH with E32Y, E57N, H104G, V112D
VL: not shown
notes: also called P1-070914-3
B14: P1-070916 (P1-068767_D52N_E55A) (antibody, human IgG1, kappa, V domains shown)
VH: B3 VH with D30E, E32Y, E56A, E57N, H104G, V112D
VL: not shown
notes: also called P1-070916-6

These binders were tested against T1, hVISTA-ECD 6-His tag (human, UniProt Q9H7M9 33-193) (assay: SPR, Ab on Protein A, hVISTA analyte, pH 6.45).
T1 construct: also called monovalent hVISTA-ECD; human VISTA
T1 sequence (Q9H7M9 other isoform, or with tags, fused parts or gaps limits assumed): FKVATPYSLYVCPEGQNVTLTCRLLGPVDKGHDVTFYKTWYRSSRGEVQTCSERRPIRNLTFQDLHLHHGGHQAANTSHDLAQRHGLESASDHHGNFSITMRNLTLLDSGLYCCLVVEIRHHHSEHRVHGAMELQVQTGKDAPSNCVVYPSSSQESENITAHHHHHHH

Binder | Kd [nM] | koff [s⁻¹] | kon [M⁻¹ s⁻¹]
B1 | 5.13 | 0.0045 | 876000
B2 | 16.2 | 0.00309 | 190000
B3 | 110 | 0.046 | 410000
B4 | 36 | 0.0087 | 240000
B5 | 150 | 0.012 | 80000
B6 | 68 | 0.025 | 360000
B7 | 160 | 0.012 | 78000
B8 | 130 | 0.032 | 240000
B9 | 130 | 0.06 | 450000
B10 | 68 | 0.0086 | 130000
B11 | 31 | 0.0039 | 130000
B12 | 54 | 0.006 | 110000
B13 | 46 | 0.0049 | 110000
B14 | 35 | 0.004 | 120000

These binders were tested against T1, hVISTA-ECD 6-His tag (assay: SPR; kd at pH 6.9 over kd at pH 6.0 (head prints 7.4)).
Experimental: (§1) Further binding kinetic experiments were performed at various pHs on VISTA antibodies described herein by SPR as generally described in Example 9 above. Antibodies were normalized to 50 nM concentration in PBST pH 7.4 and captured on a Protein A CM5 chip (ID 4931) by injecting for 45 seconds at a 5 µL/min flow rate. An 8-point human VISTA titration ([…]) was prepared in PBST at pH 7.4, 6.9, 6.45, and 6.0. Titrations were injected over the captured antibodies for 180 seconds at 30 µL/min. Sensorgrams were fit to a 1:1 binding model in T200 evaluation software and the kinetic constants were reported.
(§2) Each table reports the data at one of the four tested pHs (7.4, 6.9, 6.45, and 6.0, respectively). The 8-point hVISTA titration used in these assays was chosen to provide increased confidence in kinetic values reported at neutral pH conditions. A relatively stringent cutoff for non-binding was applied in this assay. Certain progeny of P1-061029 antibody (P1-068757, ‘759, ‘765, ‘771, and ‘775) show no binding to hVISTA at micromolar concentrations at pH 7.4, while ‘761 and ‘767 show no binding to hVISTA at 100 nM at pH 7.4 but do show binding to hVISTA at micromolar concentrations.

Binder | 7.4 kd/ 6.0 kd
B1 | 0.8
B2 | 4.1
B3 | 4.9
B4 | 6.5
B5 | 7.9
B6 | 5.1
B7 | 4.5
B8 | 4.9
B9 | 3.7
B10 | 7.2
B11 | 4.4
B12 | 4.4
B13 | 4.4
B14 | 4.8

The binders below were run against T1, hVISTA-ECD 6-His tag (assay: SPR; KD at pH 6.9 over KD at pH 6.0 (head prints 7.4)).
Experimental: as §1, §2

Binder | 7.4 KD/ 6.0 KD
B1 | 2.5
B2 | 52.4
B3 | 523
B4 | 1240
B5 | 316
B6 | 1820
B7 | 301
B8 | 211
B9 | 222
B10 | 14.9
B11 | 36.5
B12 | 23
B13 | 21.1
B14 | 35.1

Each binder was assayed against T1, hVISTA-ECD 6-His tag (assay: SPR, Ab on Protein A, hVISTA analyte, pH 6.0).

Binder | Kd [nM] | koff [s⁻¹] | kon [M⁻¹ s⁻¹]
B1 | 2.91 | 0.00527 | 1.81e+06
B2 | 2.71 | 0.00202 | 745000
B3 | 15 | 0.0068 | 440000
B4 | 5.4 | 0.0023 | 430000
B5 | 32 | 0.0063 | 200000
B6 | 8.2 | 0.0056 | 680000
B7 | 33 | 0.0063 | 190000
B8 | 21 | 0.0081 | 390000
B9 | 17 | 0.0084 | 500000
B10 | 17 | 0.0038 | 230000
B11 | 6 | 0.0019 | 310000
B12 | 10 | 0.0028 | 270000
B13 | 11 | 0.0024 | 230000
B14 | 6.5 | 0.0019 | 300000

What follows are binders tested against T1, hVISTA-ECD 6-His tag (assay: SPR, Ab on Protein A, hVISTA analyte, pH 6.9).
Experimental: as §1, §2

Binder | Kd [nM] | koff [s⁻¹] | kon [M⁻¹ s⁻¹]
B1 | 7.13 | 0.00416 | 583000
B2 | 142 | 0.00832 | 58700
B3 | 8100 | 0.034 | 4200
B4 | 6700 | 0.015 | 2300
B5 | 10000 | 0.049 | 4900
B6 | 15000 | 0.028 | 1900
B7 | 9800 | 0.028 | 2900
B8 | 4400 | 0.04 | 9000
B9 | 3700 | 0.031 | 8500
B10 | 250 | 0.028 | 110000
B11 | 220 | 0.0084 | 38000
B12 | 240 | 0.012 | 51000
B13 | 230 | 0.011 | 48000
B14 | 230 | 0.0093 | 41000

Each binder was assayed against T1, hVISTA-ECD 6-His tag (assay: SPR; kd at pH 6.45 over kd at pH 6.0 (head prints 7.4)).
Experimental: as §1, §2

Binder | 7.4 kd/ 6.0 kd
B1 | 0.9
B2 | 1.5
B3 | 6.8
B4 | 3.7
B5 | 1.9
B6 | 4.5
B7 | 2
B8 | 3.9
B9 | 7.1
B10 | 2.3
B11 | 2.1
B12 | 2.2
B13 | 2
B14 | 2.1

What follows are binders tested against T1, hVISTA-ECD 6-His tag (assay: SPR; KD at pH 6.45 over KD at pH 6.0 (head prints 7.4)).

Binder | 7.4 KD/ 6.0 KD
B1 | 1.8
B2 | 6
B3 | 7.4
B4 | 6.7
B5 | 4.6
B6 | 8.3
B7 | 4.9
B8 | 6.3
B9 | 8
B10 | 4.1
B11 | 5.1
B12 | 5.2
B13 | 4.3
B14 | 5.4
